Source: patent publication US20100129315A1

Biological target: human MN protein, entire extra-cellular domain with a C-terminal histag, expressed in HKB-11 cells (human) (UniProt Q16790)
Test: method not restated (Biacore by context)

“MN antibody G250, a humanized IgG1 antibody (Wilex)” was tested, and the Kd was 5.3 nM.
